Several values for one entry are separate records, joined by “and”; a condition that tells them apart may be missing. Equal values may be shown once.
Assays:
Miro1^P13V ΔTM = Miro1^P13V ΔTM (UniProt Q8IXI2); assay: mass photometry
Miro1^P13V-Strep = Miro1^P13V-Strep (UniProt Q8IXI2); assay: pull-down

UniProt Q8IXI2, sequence (Q8IXI2 whole entry P13V): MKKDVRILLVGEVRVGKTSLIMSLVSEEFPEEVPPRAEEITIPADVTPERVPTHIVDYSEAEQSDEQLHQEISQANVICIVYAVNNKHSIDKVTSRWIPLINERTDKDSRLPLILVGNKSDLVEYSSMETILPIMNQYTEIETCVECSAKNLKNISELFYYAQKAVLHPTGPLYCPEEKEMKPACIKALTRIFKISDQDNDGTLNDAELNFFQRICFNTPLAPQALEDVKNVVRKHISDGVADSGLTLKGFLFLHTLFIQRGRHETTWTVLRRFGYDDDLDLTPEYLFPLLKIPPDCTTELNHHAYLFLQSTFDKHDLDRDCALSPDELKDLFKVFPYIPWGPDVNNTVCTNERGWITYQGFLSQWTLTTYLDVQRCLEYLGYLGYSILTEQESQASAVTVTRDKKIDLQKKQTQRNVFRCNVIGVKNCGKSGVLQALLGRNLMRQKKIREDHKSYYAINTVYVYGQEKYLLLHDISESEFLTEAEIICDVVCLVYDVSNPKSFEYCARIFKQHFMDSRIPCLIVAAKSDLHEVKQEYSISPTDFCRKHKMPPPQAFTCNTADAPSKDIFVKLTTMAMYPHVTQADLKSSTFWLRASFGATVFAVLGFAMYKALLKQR

Row | percent forming dimers (Miro1^P13V ΔTM) | stoichiometry N (Miro1^P13V ΔTM) | reduction of the TRAK1:Miro1-Strep band intensity against Miro1^WT (Miro1^P13V-Strep) | Molecule
1 | 3% | 3 and 4 | – | Miro1^P13V ΔTM (from UniProt Q8IXI2 1-618) (domain or fragment)
2 | – | – | 30% | TRAK1^562-635 (domain or fragment) MSFSSRSYLPEKLQIVKPLEGSATLHHWQQLAQPHLGGILDPRPGVVTKGFRTLDVDLDEVYCLNDFEEDDTGD

Source: publication doi:10.1101/2022.10.25.513744
